In patent publication CN105330739A:

What was measured:
huVEGF 165 (human) [1] = assay: indirect ELISA on coated huVEGF, antibody at 400 ng/ml
huVEGF 165 (human) [2] = assay: indirect ELISA on coated huVEGF, antibody at 0.128 ng/ml
huVEGF 165 (human) [3] = assay: indirect ELISA on coated huVEGF, antibody at 0.64 ng/ml
huVEGF 165 (human) [4] = assay: indirect ELISA on coated huVEGF, antibody at 3.2 ng/ml
huVEGF 165 (human) [5] = assay: indirect ELISA on coated huVEGF, antibody at 80 ng/ml
huVEGF 165 (human) [6] = assay: indirect ELISA on coated huVEGF, antibody at 0.00512 ng/ml
huVEGF 165 (human) [7] = assay: indirect ELISA on coated huVEGF, antibody at 16 ng/ml
huVEGF 165 (human) [8] = assay: indirect ELISA, huVEGF coated at 0.5 ug/ml, four-parameter fit
huVEGF 165 (human) [9] = assay: indirect ELISA on coated huVEGF, antibody at 0.0256 ng/ml

huVEGF 165 (human), sequence (chain, as listed by the source, form in doubt): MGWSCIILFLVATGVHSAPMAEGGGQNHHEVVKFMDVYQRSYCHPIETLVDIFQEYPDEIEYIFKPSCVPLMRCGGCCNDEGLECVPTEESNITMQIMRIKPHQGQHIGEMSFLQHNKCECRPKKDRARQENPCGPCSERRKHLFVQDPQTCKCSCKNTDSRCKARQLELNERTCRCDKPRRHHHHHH

B1: NevegiMab抗体 (antibody, V domains shown)
VH: EVKLQESGPELKKPGETVKISCKASGYTFTNYGLNWVKQAPGKGLKWMGWINTYTGEPTYADDFKGRFAFSLETSASTAYLQINNLKNEDMATYFCAKYGITYEWYFDVWGAGTTVTVSS
VL: DIVLTQSTSSLSASLGDRVTISCRASQDISNSLNWYQQKPNGTVILLIYYTSRLHSGVPSRFSGSGSGAVYSLTISDLEQEDIATYFCQQGNTFPWTFGGGTKLEIKR
OD450 复孔1 (huVEGF 165 (human) [1]): 3.53 OD450
OD450 复孔2 (huVEGF 165 (human) [1]): 3.44 OD450
OD平均 (huVEGF 165 (human) [1]): 3.49 OD450
OD450 复孔1 (huVEGF 165 (human) [2]): 0.208 OD450
OD450 复孔2 (huVEGF 165 (human) [2]): 0.214 OD450
OD平均 (huVEGF 165 (human) [2]): 0.21 OD450
OD450 复孔1 (huVEGF 165 (human) [3]): 0.572 OD450
OD450 复孔2 (huVEGF 165 (human) [3]): 0.614 OD450
OD平均 (huVEGF 165 (human) [3]): 0.59 OD450
OD450 复孔1 (huVEGF 165 (human) [4]): 1.83 OD450
OD450 复孔2 (huVEGF 165 (human) [4]): 1.92 OD450
OD平均 (huVEGF 165 (human) [4]): 1.87 OD450
OD450 复孔1 (huVEGF 165 (human) [5]): 3.33 OD450
OD450 复孔2 (huVEGF 165 (human) [5]): 3.31 OD450
OD平均 (huVEGF 165 (human) [5]): 3.32 OD450
OD450 复孔1 (huVEGF 165 (human) [6]): 0.115 OD450
OD450 复孔2 (huVEGF 165 (human) [6]): 0.118 OD450
OD平均 (huVEGF 165 (human) [6]): 0.12 OD450
OD450 复孔1 (huVEGF 165 (human) [7]): 3 OD450
OD450 复孔2 (huVEGF 165 (human) [7]): 2.9 OD450
OD平均 (huVEGF 165 (human) [7]): 2.95 OD450
EC50 (huVEGF 165 (human) [8]): 0.02 nM
OD450 复孔1 (huVEGF 165 (human) [9]): 0.132 OD450
OD450 复孔2 (huVEGF 165 (human) [9]): 0.135 OD450
OD平均 (huVEGF 165 (human) [9]): 0.13 OD450
